Measurements: the Human Domainome abundance scans (Beltran et al. 2025)

B1: Apoptosis-associated speck-like protein containing a CARD, residues 114 to 194; numbered along this chain, Q9ULZ3 (parent)
chain: FIDQHRAALIARVTNVEWLLDALYGKVLTDEQYQAVRAEPTNPSKMRKLFSFTPAWNWTCKDLLLQALRESQSYLVEDLER
B2: POU domain, class 4, transcription factor 3, residues 185 to 256; numbered along this chain, Q15319 (parent)
chain: RELEAFAERFKQRRIKLGVTQADVGAALANLKIPGVGSLSQSTICRFESLTLSHNNMIALKPVLQAWLEEAE

Variants of: B1
Test: abundance fitness (aPCA) (normalised: wild type 0, dead -1); higher = more abundant; growth selection in yeast, the domain comes from the species named
Conditions: Homo sapiens

Abundance fitness, by site and new letter:
A8: V -0.424 | S -0.112 | P -0.945 | K -0.521 | T -0.239 | N -0.558 | Q -0.078 | Y -0.193 | E 0.2 | G -0.577 | H -0.375 | F -0.673 | M -0.372 | W -0.776 | C -0.312 | L -0.79 | I -0.225
V13: C 0.023 | F -0.495 | K -0.899 | E -0.538 | P -0.396 | L -0.632 | D -0.688 | W -0.893 | M -0.611 | H -0.878 | N -0.861 | A -0.039 | Y -0.729 | R -0.851 | Q -0.775 | S -0.535 | G -0.598
V16: P -0.35 | I -0.464 | E -0.928 | D -0.773 | W -0.533 | T -0.572 | G -0.88 | Y -1.02 | Q -0.865 | H -0.821 | C -0.342 | S -0.846 | A -0.794 | R -0.573 | L -0.484 | F -0.941
W18: L 0.043 | K 0.186 | F 0.213 | C 0.029 | D 0.18 | I 0.061 | G 0.169 | A 0.248 | E 0.103
N15: M -0.847 | C -0.718 | T -0.518 | W -0.605 | V -0.947 | G -0.604 | Y -0.555 | L -0.796 | H -0.291 | A -0.718 | K -0.041 | I -0.857 | E -0.188 | R -0.359 | F -0.997 | P -0.806 | D -0.142
Q4: C -0.43 | K -0.111 | I -0.015 | A -0.358 | P -1.03 | N -0.103 | W -0.802 | G -0.685 | M -0.161 | D -0.432 | R -0.19 | V -0.165 | T 0.117 | F -0.34 | H -0.315 | L -0.352
T14: S -0.045 | L -0.571 | I -0.541 | H -0.644 | R -0.209 | F -0.749 | W -0.864 | D -0.058 | Q -0.252 | M -0.607 | G -0.265 | A -0.4 | C -0.656 | P -0.815 | N -0.206 | K -0.295 | E -0.004 | Y -0.54
I2: W -0.619
R6: I -0.389 | F -0.538 | M -0.107 | P -0.685 | C -0.752 | S -0.385 | H -0.635 | E -0.141 | N -0.397 | L -0.362 | T -0.549 | A -0.074 | D -0.724 | Y -0.327 | G -0.501 | Q -0.285 | K 0.014 | V -0.416
R12: M -0.628 | T -0.746 | L -0.948 | P -0.964 | I -0.803 | G -0.17 | K -0.228 | D -0.666 | Y -0.484 | C -0.361 | F -0.655 | W -1.18 | N -0.14 | H -0.219 | Q -0.152 | E -0.316 | A -0.707 | S -0.462
E17: M -0.49 | G -0.357 | Y -0.61 | N -0.286 | P -0.705 | D 0.019 | Q -0.083 | R -0.642 | F -0.97 | T -0.267 | C -0.867 | A -0.619 | V -0.985 | W -0.642 | S -0.536 | L -0.859 | H -0.695
H5: D -0.751 | M -0.145 | Y -0.316 | A -0.276 | V -0.147 | F -0.553 | S -0.657 | E -0.441 | N -0.157 | P -0.741 | G -0.833 | I -0.057 | T -0.602 | Q -0.341 | R -0.743 | K -0.605 | L -0.071 | W -0.381
A11: E -0.115 | R -0.038
I10: Q -0.655 | S -0.977 | H -0.769 | M -0.489 | D -0.658 | G -0.74 | E -0.594 | A -0.714 | R -0.631 | Y -0.54 | N -0.745 | C -0.628 | W -0.793 | T -0.515 | F -0.84 | P -0.985
F1: R -0.498 | H -0.375 | D -0.685 | E -0.745 | Y -1 | L -0.809 | V -0.908 | S -0.385 | G -0.968 | M -0.661 | C -1.04
L9: Q -1.03 | S -0.938 | Y -0.644 | I -0.429 | H -0.749 | P -0.694 | W -0.811 | E -0.76 | A -0.901 | K -0.948 | M -0.563 | G -0.624 | D -0.798 | V -0.989 | R -0.925 | N -0.776 | C -0.558 | F -0.763
A7: E 0.295 | F -0.652 | V -0.249 | Q 0.045 | I -0.638 | C -0.2 | G -0.152 | L -0.461 | D 0.065 | K -0.035 | M -0.251 | H -0.149 | P -0.437 | T -0.277 | N 0.002 | Y -0.54 | S -0.014 | R -0.119
D3: F -0.749 | P -0.951 | E -0.387 | S -0.592 | G -0.805 | C -0.822 | Y -0.794 | A -0.777 | R -0.544 | L -0.881 | H -0.616 | I -0.796 | W -0.582 | N -0.599 | K -0.825 | Q -0.929 | T -0.907

Variants of: B2
Test: as above
Conditions: Homo sapiens

Abundance fitness of substitutions, site by site:
A71: Y -0.064 | G -0.226 | I -0.178 | K 0.002 | V -0.073 | F -0.139 | N -0.032 | D -0.574 | S -0.108 | E -0.103 | R -0.005 | M -0.106 | W -0.281 | T -0.085
L68: V -0.13 | T -0.46 | W -0.574 | Y -0.287
E70: F -0.397 | N 0.114 | Q -0.084 | A -0.098 | L -0.323 | M -0.253 | G -0.095 | Y -0.245 | R -0.036 | I -0.348 | W -0.29 | K -0.03 | H -0.014 | D -0.118 | V -0.307 | S -0.034 | C -0.271
E72: G -0.278 | A -0.31 | N -0.192 | S -0.153 | H -0.378 | L -0.363 | V -0.265 | C -0.175 | F -0.63 | D -0.111 | K -0.384 | Y -0.544 | R -0.526 | Q -0.263 | M -0.36 | W -0.325 | T -0.219
E69: P -0.672 | T -0.075 | Q -0.091 | W -0.232 | N -0.06 | Y -0.059 | V -0.046 | R -0.065 | A 0.04 | G -0.194 | F -0.2 | D -0.039 | C 0.006 | M -0.041 | I -0.106 | H -0.332 | K -0.041 | L -0.097
